Nine molecules from patent US20240131158A1 (Takeda / Millennium, published 2024) can be followed below.

Substitutions are numbered along the chain they refer to. Names and notes keep the numbering of the source.

Test [1] concerns the target T1, hTGFβR2-Fc (human, UniProt P37173 23-159).
T1 construct: Bought (RnD Systems); also called TGFbR2-Fc; human recombinant TGFbR2-Fc protein; not shown: Fc part of the bought fusion protein
Briefly: ELISA, plate coated with hTGFβR2-Fc, human CAR-T supernatant, anti-flag HRP detection. How it is done: (§1) Supernatant from TGF-β modulating CAR-T cells were assayed by ELISA to detect anti-TGF-β and anti-TGFβR2 antibodies. Maxisorp 96 well plates were coated with recombinant human TGF-β […] or hTGFβR2-Fc (0.1 mg/ml; RnD System) in 100 μl coating buffer overnight at 4° C. Plates were washed with 1× wash buffer and blocked for 1 hour with reagent diluent at room temperature. CAR-T supernatant, recombinant TGFβR2-flag, or recombinant TGF-3-flag antibody was added and incubated for 2 hours at room temperature.
(§2) After another washing step, HRP-conjugated flag-tag antibody was added and incubated for 30 minutes at room temperature. Plates were washed and TMB substrate was added for 10-20 minutes. The reaction was stopped using Stop reagent and plates were read at 450 nm using a Pherastar Plate reader. ELISA using coated TGF-b detected high levels of TGF-b scFv VH-VL1 and TGF-b scFv VH-VL2 as compared to TGF-b scFv VL-VH using anti-flag tag HRP antibodies for binder detection (FIG. 3A). ELISA using coated TGFbR2-Fc detected high levels of TGFbR2 scFv VH-VL, TGFbR2 scFv VL-VH and hTGFbR2 VH1 from human CAR-T but was unable to detect mTGFbR2 VH1 (FIG. 3B). TGF-β binders and TGFβR2 binders were secreted by TGF-β modulating CAR-T cells and bind to their cognate antigen.

In test [2] the target is T1, hTGFβR2-Fc. Briefly: ELISA (figure legend). The protocol: as §1
as §2, with “TGF-β binders and TGFβR2 binders were secreted by TGF-β modulating CAR-T cells and bind to their cognate antigen.” left out
(§3) Supernatant was harvested two days after transduction and frozen at −80′C until used for ELISA. […] Binding was detected using anti-flag HRP antibodies and the respective substrate. […]

In test [3] the target is T2, mouse recombinant TGFbR2-Fc protein (mouse, UniProt Q62312-1 24-184, limits assumed).
T2 construct: also called mouse TGFbR2; not shown: Fc part of the fusion protein
T2 sequence (looked up): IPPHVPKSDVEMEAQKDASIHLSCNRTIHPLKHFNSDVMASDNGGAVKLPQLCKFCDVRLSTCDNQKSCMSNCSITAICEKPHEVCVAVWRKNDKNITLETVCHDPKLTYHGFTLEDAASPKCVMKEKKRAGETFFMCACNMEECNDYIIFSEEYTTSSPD
Briefly: ELISA, mouse recombinant TGFbR2-Fc as capture, mouse CAR-T supernatant, anti-flag HRP detection. How it is done: as §1, §2
Supernatant was harvested two days after transduction and frozen at −80′C until used for ELISA. ELISA was performed as described in Example 3. Human recombinant TGFbR2-Fc protein was used for capturing binders against human TGFbR2 and mouse recombinant TGFbR2-Fc protein was used for probing binding of TGFbR2 binders to mouse TGFbR2. Binding was detected using anti-flag HRP antibodies and the respective substrate. […] None of the binders from the tested supernatants bound to mouse TGFbR2 confirming specificity for human TGFBR2.

The target in test [4] is T1, hTGFβR2-Fc. The experiment in a line: ELISA, plate coated with hTGFβR2-Fc, CAR-T supernatant, anti-flag HRP detection. The protocol:
as §1, §2

For test [5], the target named is T1, hTGFβR2-Fc. The experiment in a line: ELISA, human recombinant TGFbR2-Fc as capture, mouse CAR-T supernatant, anti-flag HRP detection. The protocol:
as §1
as §2, with “TGF-β binders and TGFβR2 binders were secreted by TGF-β modulating CAR-T cells and bind to their cognate antigen.” left out
as §3

T1 sequence (P37173 23-159 limits assumed): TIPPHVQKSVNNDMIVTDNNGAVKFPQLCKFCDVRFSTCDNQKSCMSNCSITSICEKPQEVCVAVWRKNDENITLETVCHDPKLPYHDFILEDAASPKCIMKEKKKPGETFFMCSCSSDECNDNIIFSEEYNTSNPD

B1: hTGFbR2 VH1 (VHH)
VHH: EVQLLESGGGLVQPGGSLRLSCAASGFTFGTEQMWWVRQAPGKGLEFVSRIDSPGGRTYYADSVKGRFTISRDNSKNTLYLQMNSLRAEDTAVYYCAKRRPTGVSGTFYDYWGQGTLVTVSS
notes: Single domain VH; Secreted into CAR-T cell supernatant; Detected with anti-flag HRP
Take B1: the binding result in the test with hTGFβR2-Fc [1] is recorded as “binds”.

B2: hTGFbR2 VH3 monomer (VHH)
VHH: B1 VHH with E32D, D62N, R100Q, T102A, T107K, F108Y, Y109V
notes: Flag-tagged
With B2, the binding result with hTGFβR2-Fc [2] is recorded as “binds”; in test [3], “no binding”.

B3: hTGFbR2 scFv VH-VL G4S dimer (scFv)
chain: QLQVQESGPGLVKPSETLSLTCTVSGGSISNSYFSWGWIRQPPGKGLEWIGSFYYGEKTYYNPSLKSRATISIDTSKSQFSLKLSSVTAADTAVYYCPRGPTMIRGVIDSWGQGTLVTVSSGGGGSGGGGSGGGGSEIVLTQSPATLSLSPGERATLSCRASQSVRSYLAWYQQKPGQAPRLLIYDASNRATGIPARFSGSGSGTDFTLTISSLEPEDFAVYYCQQRSNWPPTFGQGTKVEIKGGGGSQLQVQESGPGLVKPSETLSLTCTVSGGSISNSYFSWGWIRQPPGKGLEWIGSFYYGEKTYYNPSLKSRATISIDTSKSQFSLKLSSVTAADTAVYYCPRGPTMIRGVIDSWGQGTLVTVSSGGGGSGGGGSGGGGSEIVLTQSPATLSLSPGERATLSCRASQSVRSYLAWYQQKPGQAPRLLIYDASNRATGIPARFSGSGSGTDFTLTISSLEPEDFAVYYCQQRSNWPPTFGQGTKVEIK
notes: Built here from its name (scFv - G4S - scFv); Flag-tagged; also called TGFbR2 scFv VH-VL dimer
As to B3, the binding result in test [3] is given as “no binding”.

B4: mTGFbR2 VH1 (VHH)
VHH: EVQLLESGGGLVQPGGSLRLSCAASGFTFTTYGMGWVRQAPGKGLEWVSWIEKTGNKTYYADSVKGRFTISRDNSKNTLYLQMNSLRAEDTAVYYCAKARHIKVRSRDFDYWGQGTLVTVSS
notes: Single domain VH expressed in human CAR-T cells; Flag-tagged
B4: the binding result with hTGFβR2-Fc [4] is recorded as “no binding”.

B5: hTGFbR2 VH2 monomer (VHH)
VHH: EVQLLESGGGLVQPGGSLRLSCAASGSTFTEYRMWWVRQAPGKGLEWVSAIEPIGHRTYYANSVRGRFTISRDNSKNTLYLQMNSLRAEDTAVYYCAKQAPGEKWARRWDLDYWGQGTLVTVSS
notes: Flag-tagged (anti-flag HRP detection); also called TGFbR2 hVH2
As to B5, the figures for the binding result (with hTGFβR2-Fc [2]; in test [3]) were “binds” and “no binding”, respectively.

B6: TGFbR2 scFv VH-VL (scFv)
scFv: QLQVQESGPGLVKPSETLSLTCTVSGGSISNSYFSWGWIRQPPGKGLEWIGSFYYGEKTYYNPSLKSRATISIDTSKSQFSLKLSSVTAADTAVYYCPRGPTMIRGVIDSWGQGTLVTVSSGGGGSGGGGSGGGGSEIVLTQSPATLSLSPGERATLSCRASQSVRSYLAWYQQKPGQAPRLLIYDASNRATGIPARFSGSGSGTDFTLTISSLEPEDFAVYYCQQRSNWPPTFGQGTKVEIK
notes: Secreted into CAR-T cell supernatant; Detected with anti-flag HRP; also called hTGFbR2 scFv VH-VL monomer; TGFbR2 scFv VH-VL monomer
For the molecule B6, the binding result in the test with hTGFβR2-Fc [5] is given as “binds”; in test [3] it was “no binding”.

B7: TGFbR2 scFv VL-VH (scFv)
scFv: EIVLTQSPATLSLSPGERATLSCRASQSVRSYLAWYQQKPGQAPRLLIYDASNRATGIPARFSGSGSGTDFTLTISSLEPEDFAVYYCQQRSNWPPTFGQGTKVEIKGGGGSGGGGSGGGGSQLQVQESGPGLVKPSETLSLTCTVSGGSISNSYFSWGWIRQPPGKGLEWIGSFYYGEKTYYNPSLKSRATISIDTSKSQFSLKLSSVTAADTAVYYCPRGPTMIRGVIDSWGQGTLVTVSS
notes: Secreted into CAR-T cell supernatant; Detected with anti-flag HRP
For B7, the binding result with hTGFβR2-Fc [1] is on record as “binds”.

B8: hTGFbR2 VH3 G4S dimer (VHH)
chain: EVQLLESGGGLVQPGGSLRLSCAASGFTFGTDQMWWVRQAPGKGLEFVSRIDSPGGRTYYANSVKGRFTISRDNSKNTLYLQMNSLRAEDTAVYYCAKRQPAGVSGKYVDYWGQGTLVTVSSGGGGSEVQLLESGGGLVQPGGSLRLSCAASGFTFGTDQMWWVRQAPGKGLEFVSRIDSPGGRTYYANSVKGRFTISRDNSKNTLYLQMNSLRAEDTAVYYCAKRQPAGVSGKYVDYWGQGTLVTVSS
notes: It is built here from its name (VH3 - G4S - VH3); Flag-tagged; also called hTGFbR2-VH3 dimer
In the case of B8, the binding result in test [3] was “no binding”.

B9: hTGFbR2 VH2 G4S dimer (VHH)
chain: EVQLLESGGGLVQPGGSLRLSCAASGSTFTEYRMWWVRQAPGKGLEWVSAIEPIGHRTYYANSVRGRFTISRDNSKNTLYLQMNSLRAEDTAVYYCAKQAPGEKWARRWDLDYWGQGTLVTVSSGGGGSEVQLLESGGGLVQPGGSLRLSCAASGSTFTEYRMWWVRQAPGKGLEWVSAIEPIGHRTYYANSVRGRFTISRDNSKNTLYLQMNSLRAEDTAVYYCAKQAPGEKWARRWDLDYWGQGTLVTVSS
notes: Flag-tagged; also called hTGFbR2-VH2 dimer
As for B9, the binding result in test [3] is on record as “no binding”.
